Square brackets hold non-standard residues; d marks the D form. * marks the point of attachment. NHOH = ON*
Molecular target: Aβ1-40 fibril (Homo sapiens)
Assay: other, fibril binding 3-point assay

B1: PPI-1800 (peptide)
chain: Me-[dL][dV][dF][dF][dL]-{NHOH}
**Q.** Which Kd does the source give for B1 here?
**A.** ~4 nM

Reference: patent US20050137128 (published 2005)
